Assay results from paper PMC9734383 (2022).
Where “and” joins values, the source holds several entries; their conditions need not be identical. Equal values may be shown once.

Legend:
Test in all cases: BLI
[1] = molecular target: H12 HA (recombinant HA of the panel) (influenza A virus (strain  in …))
[2] = molecular target: H4 HA (recombinant HA of the panel) (influenza A virus (strain  in …))
[3] = molecular target: H1 HA (recombinant HA of the panel) (influenza A virus (strain  in …))
[4] = molecular target: H11 HA (recombinant HA of the panel) (influenza A virus (strain  in …))
[5] = molecular target: H8 HA (recombinant HA of the panel) (influenza A virus (strain  in …))
[6] = molecular target: H9 HA (recombinant HA of the panel) (influenza A virus (strain  in …))
[7] = molecular target: H14 HA (recombinant HA of the panel) (influenza A virus (strain  in …))
[8] = molecular target: H18 HA (recombinant HA of the panel) (influenza A virus, bat H18N11 (strain …))
[9] = molecular target: H15 HA (recombinant HA of the panel) (influenza A virus (strain  in …))
[10] = molecular target: H17 HA (recombinant HA of the panel) (influenza A virus, bat H17N10 (strain …))
[11] = molecular target: H5 HA (recombinant HA of the panel) (influenza A virus (strain  in …))
[12] = molecular target: H10 HA (recombinant HA of the panel) (influenza A virus (strain  in …))
[13] = molecular target: H1-HA (A/swine/Guangdong/104/2013) (influenza A virus …)
[14] = molecular target: H6 HA (recombinant HA of the panel) (influenza A virus (strain  in …))
[15] = molecular target: H3 HA (recombinant HA of the panel) (influenza A virus (strain  in …))

B1: PN-SIA28 Fab (Fab, V domains shown)
VH: QVQLVESGGGVVQPGRSLRLSCAASGFPFSSYGMHWVRQAPGKGLEWVAGVSYDGSYKYYADSVKGRFTISRDSSKSTLYLQMNSLRPEDTAVYYCARPSAIFGIYIILNGLDVWGQGTTVTVSS
VL: EIVLTQSPSSVSASVGDRVTITCRATQGISSWLAWYQQKPGKPPKLLIFGASSLQSGVPSRFSGSGSGTDFTLTISSLQPEDFATYFCQQAHSFPLTFGGGTKVEIK
Kd [1]: 14900 nM
Kd [2]: 201 nM
Kd [3]: 0.174 nM
Kd [4]: 682 nM
Kd [5]: 36 nM
Kd [6]: 34.3 nM
Kd [7]: 171 nM
Kd [8]: 40.2 nM
Kd [9]: 2380 nM
Kd [10]: 208 nM
Kd [11]: 6.3 nM and 6.79 nM
Kd [12]: 1160 nM
Kd [13]: 0.26 nM
Kd [14]: 66.8 nM
Kd [15]: 144 nM
